According to patent US20080159989A1:

Biological target: Nodal (mouse) (UniProt P43021)

Row | Substance | % of beating EB (Cripto-/- ES cells transfected with Cerberus-S, EBs treated with recombinant Cripto) (% of beating EB) | % of beating EB (Cripto-/- ES cells transfected with Cerberus, EBs treated with recombinant Cripto) (% of beating EB)
1 | Cerberus-Short (CerS) | 8.3 | –
2 | Cerberus | – | 10.3
